Measurements taken from the Human Domainome abundance scans (Beltran et al. 2025).
± gives the uncertainty stated by the source.

B1: Arginine-glutamic acid dipeptide repeats protein, residues 502 to 543; numbered along this chain, Q9P2R6 (parent)
chain: LKGYACRHCFTTTSKDWHHGGRENILLCTDCRIHFKKYGELP

Variants of: B1
Experiment: abundance fitness (aPCA) (normalised: wild type 0, dead -1); higher = more abundant; growth selection in yeast, the domain comes from the species named
Conditions: Homo sapiens

Variant	abundance fitness
R32Q	-0.035 ± 0.045
R32S	-0.013 ± 0.035
R32T	-0.088 ± 0.048
R32V	-0.14 ± 0.036
R32W	0.053 ± 0.043
I33A	0.079 ± 0.036
I33C	0.103 ± 0.047
I33D	0.117 ± 0.054
I33E	0.081 ± 0.04
I33F	-0.079 ± 0.11
I33G	0.104 ± 0.036
I33H	0.017 ± 0.085
I33K	-0.011 ± 0.04
I33L	0.074 ± 0.043
I33M	-0.007 ± 0.044
I33P	-0.465 ± 0.057
I33Q	0.074 ± 0.038
I33R	0.026 ± 0.031
I33S	0.017 ± 0.039
I33T	0.042 ± 0.053
I33V	0.068 ± 0.037
I33W	-0.059 ± 0.036
I33Y	-0.01 ± 0.063
H34A	-0.033 ± 0.033

Variant	abundance fitness
H34C	0.05 ± 0.069
H34D	-0.32 ± 0.1
H34E	-0.242 ± 0.037
H34F	-0.218 ± 0.094
H34G	-0.193 ± 0.033
H34I	-0.472 ± 0.16
H34L	-0.282 ± 0.045
H34M	-0.204 ± 0.061
H34P	-0.805 ± 0.21
H34Q	-0.098 ± 0.043
H34R	-0.258 ± 0.032
H34S	-0.04 ± 0.041
H34T	-0.204 ± 0.047
H34V	-0.3 ± 0.038
H34W	-0.001 ± 0.037
H34Y	-0.102 ± 0.088
F35A	-0.089 ± 0.039
F35C	-0.191 ± 0.06
F35D	-0.112 ± 0.098
F35G	-0.287 ± 0.031
F35H	-0.015 ± 0.068
F35K	-0.091 ± 0.089
F35L	-0.057 ± 0.034
F35M	-0.163 ± 0.067

Variant	abundance fitness
F35N	-0.245 ± 0.14
F35P	-0.422 ± 0.064
F35Q	-0.058 ± 0.044
F35R	-0.236 ± 0.034
F35S	-0.187 ± 0.038
F35W	0.001 ± 0.037
K36A	0.081 ± 0.035
K36C	-0.134 ± 0.064
K36E	-0.012 ± 0.039
K36F	0.294 ± 0.13
K36G	0.079 ± 0.033
K36L	-0.068 ± 0.042
K36M	-0.095 ± 0.051
K36N	0.248 ± 0.092
K36P	-0.363 ± 0.054
K36Q	0.123 ± 0.075
K36R	-0.029 ± 0.034
K36S	0.008 ± 0.041
K36T	0.009 ± 0.055
K36V	-0.038 ± 0.048
K36W	-0.147 ± 0.052
K37A	-0.034 ± 0.037
K37C	-0.168 ± 0.061
K37D	-0.013 ± 0.049

Variant	abundance fitness
K37E	-0.04 ± 0.047
K37G	-0.184 ± 0.039
K37H	-0.182 ± 0.38
K37L	-0.194 ± 0.041
K37M	-0.089 ± 0.065
K37N	-0.09 ± 0.068
K37P	-0.278 ± 0.13
K37Q	-0.027 ± 0.046
K37R	-0.026 ± 0.036
K37S	-0.052 ± 0.051
K37T	-0.032 ± 0.056
K37V	-0.149 ± 0.036
K37W	-0.135 ± 0.044
K37Y	-0.159 ± 0.12
Y38A	-0.077 ± 0.038
Y38C	0.059 ± 0.054
Y38D	-0.114 ± 0.047
Y38E	0.018 ± 0.041
Y38F	-0.069 ± 0.062
Y38G	-0.185 ± 0.033
Y38H	-0.111 ± 0.26
Y38I	-0.298 ± 0.1
Y38K	-0.002 ± 0.041
Y38L	-0.123 ± 0.04

Variant	abundance fitness
Y38M	-0.117 ± 0.06
Y38N	0.083 ± 0.087
Y38P	-0.215 ± 0.056
Y38Q	-0.062 ± 0.11
Y38R	-0.084 ± 0.034
Y38S	-0.017 ± 0.047
Y38T	0.123 ± 0.059
Y38V	0.022 ± 0.036
Y38W	-0.074 ± 0.049
G39A	-0.108 ± 0.033
G39C	-0.142 ± 0.26
G39D	0.053 ± 0.071
G39E	-0.078 ± 0.04
G39F	-0.393 ± 0.14
G39I	-0.726 ± 0.17
G39L	-0.249 ± 0.048
G39M	-0.328 ± 0.065
G39N	0.027 ± 0.095
G39P	-0.478 ± 0.061
G39Q	-0.082 ± 0.046
G39R	-0.118 ± 0.03
G39S	-0.171 ± 0.041
G39T	-0.291 ± 0.05
G39V	-0.42 ± 0.042

Variant	abundance fitness
G39W	-0.301 ± 0.038
G39Y	-0.259 ± 0.047
E40A	-0.066 ± 0.034
E40C	-0.073 ± 0.072
E40D	-0.101 ± 0.049
E40F	-0.472 ± 0.1
E40G	-0.136 ± 0.033
E40H	-0.11 ± 0.073
E40I	-0.095 ± 0.38
E40K	-0.044 ± 0.045
E40L	-0.122 ± 0.038
E40M	-0.176 ± 0.045
E40N	-0.116 ± 0.056
E40P	-0.521 ± 0.089
E40Q	-0.012 ± 0.058
E40S	-0.077 ± 0.037
E40T	-0.078 ± 0.036
E40V	-0.036 ± 0.038
E40W	-0.265 ± 0.038
E40Y	-0.143 ± 0.094
L41A	-0.317 ± 0.041
L41C	-0.223 ± 0.052
L41D	-0.245 ± 0.072
L41E	-0.301 ± 0.039

Variant	abundance fitness
L41F	0.271 ± 0.33
L41G	-0.276 ± 0.036
L41H	-0.416 ± 0.069
L41I	-0.46 ± 0.092
L41K	-0.309 ± 0.044
L41M	-0.126 ± 0.057
L41N	-0.366 ± 0.055
L41P	-0.253 ± 0.041
L41Q	-0.327 ± 0.078
L41S	-0.325 ± 0.045
L41T	-0.044 ± 0.08
L41V	-0.246 ± 0.039
L41W	-0.302 ± 0.038
L41Y	-0.22 ± 0.097
P42A	-0.367 ± 0.048
P42E	-0.3 ± 0.09
P42G	-0.519 ± 0.12
P42L	-0.491 ± 0.085
P42Q	-0.349 ± 0.073
P42R	-0.654 ± 0.1
P42V	-0.456 ± 0.09
